Source: US8409583B2, “Engineered versions of CgtB (β-1,3 galactosyltransferase) enzymes, with enhanced enzymatic properties” (National Research Council of Canada, priority 2007, dated 2013)

Key:
Format in all cases: biochemical
[1] = CgtB activity assay (capillary electrophoresis), acceptor GalNAcα-FCHASE; details: for Relative activity (%): GalNAcα-FCHASE at 0.5 mM, reference (100%) GM2-FCHASE for CgtBOH4384 and CgtB11168, GA2-FCHASE for CgtBHS:10, average of two experiments; for Specific Activity (mU/mg) on a given FCHASE-labeled acceptor: purified enzyme, 3 mM GalNAcα-FCHASE
Protocol: (§1) The oligosaccharide acceptors and the interferon alpha 2b (IFNα2b) peptide (VGVTETP, corresponding to positions 103-109 of the mature IFNα2b protein) were labeled with FCHASE as previously described (Wakarchuk, W. et al., J Biol. Chem. 271:19166-19173 (1996)). IFNα2b-FCHASE was purified by reverse-phase chromatography using a PRP-1 column (10×250 mm, Hamilton Company, Reno, Nev.) in 10 mM ammonium acetate pH 5.5 with a gradient of acetonitrile (0-100% over 4 column volumes). […] All reactions were stopped by addition of 10 μL of 50% acetonitrile, 10 mM EDTA and 1% SDS and were diluted with H2O to obtain 10-15 μM final concentration of the FCHASE-labeled compounds. The samples were analyzed by capillary electrophoresis as described previously (Wakarchuk, W. W. et al., Methods Mol. Biol. 213:263-274 (2003)) except that a P/ACE MDQ Capillary Electrophoresis System equipped with a Laser module 488 (Beckman Coulter, Calif.) was used. Quantitation of the reactions was performed by integration of the trace peaks using the MDQ 32 Karat software.

[2] = CgtB activity assay (capillary electrophoresis), acceptor lyso-GM2-FCHASE; details: lysoGM2-FCHASE at 0.5 mM; reference (100%) GM2-FCHASE for CgtBOH4384 and CgtB11168, GA2-FCHASE for CgtBHS:10; average of three experiments
Protocol: (§2) The oligosaccharide acceptors and the interferon alpha 2b (IFNα2b) peptide (VGVTETP, corresponding to positions 103-109 of the mature IFNα2b protein) were labeled with FCHASE as previously described (Wakarchuk, W. et al., J Biol. Chem. 271:19166-19173 (1996)). IFNα2b-FCHASE was purified by reverse-phase chromatography using a PRP-1 column (10×250 mm, Hamilton Company, Reno, Nev.) in 10 mM ammonium acetate pH 5.5 with a gradient of acetonitrile (0-100% over 4 column volumes). CgtB activity assays were done in cell lysates or using purified enzyme in 50 mM MES pH 6.0, 0.5 mM of FCHASE-acceptor (unless otherwise indicated), 10 mM MnCl2, 10 mM DTT, 1 mM UDP-Gal at 37° C. from 5 to 30 minutes. All reactions were stopped by addition of 10 μL of 50% acetonitrile, 10 mM EDTA and 1% SDS and were diluted with H2O to obtain 10-15 μM final concentration of the FCHASE-labeled compounds. The samples were analyzed by capillary electrophoresis as described previously (Wakarchuk, W. W. et al., Methods Mol. Biol. 213:263-274 (2003)) except that a P/ACE MDQ Capillary Electrophoresis System equipped with a Laser module 488 (Beckman Coulter, Calif.) was used. Quantitation of the reactions was performed by integration of the trace peaks using the MDQ 32 Karat software.

[3] = CgtB activity assay (capillary electrophoresis), acceptor GA2-FCHASE; details: GA2-FCHASE at 0.5 mM; reference (100%) GM2-FCHASE for CgtBOH4384 and CgtB11168, GA2-FCHASE for CgtBHS:10; average of two experiments
Protocol: as §2

[4] = CgtB activity assay (capillary electrophoresis), acceptor GM2-FCHASE; details: for Relative activity (%): GM2-FCHASE at 0.5 mM, reference (100%) GM2-FCHASE for CgtBOH4384 and CgtB11168, GA2-FCHASE for CgtBHS:10, average of three experiments; for Specific Activity (mU/mg) on a given FCHASE-labeled acceptor: purified enzyme, 1 mM GM2-FCHASE
Protocol: as §2

[5] = system: IFNα2b[Tn]-FCHASE; test: CgtB activity assay (capillary electrophoresis), glycopeptide acceptor IFNα2b[Tn]-FCHASE; details: purified enzyme; 1 mM IFNα2b[Tn]-FCHASE
Protocol: as §2
The IFNα2b protein was purchased from Cell Sciences (Canton, Mass.). […]

[6] = CgtB activity assay (capillary electrophoresis), acceptor GalNAcβ-FCHASE; details: for Relative activity (%): GalNAcβ-FCHASE at 0.5 mM, reference (100%) GM2-FCHASE for CgtBOH4384 and CgtB11168, GA2-FCHASE for CgtBHS:10, average of three experiments; for Specific Activity (mU/mg) on a given FCHASE-labeled acceptor: purified enzyme, 3 mM GalNAcβ-FCHASE
Protocol: as §1

Molecule | Relative activity (%) [1] | Specific Activity (mU/mg) on a given FCHASE-labeled acceptor [1] | Relative activity (%) [2] | Relative activity (%) [3] | Relative activity (%) [4] | Specific Activity (mU/mg) on a given FCHASE-labeled acceptor [4] | Specific Activity (mU/mg) on a given FCHASE-labeled acceptor [5] | Relative activity (%) [6] | Specific Activity (mU/mg) on a given FCHASE-labeled acceptor [6]
CJL-10: Full length CgtB β-1,3-galactosyltransferase from C. jejuni OH4384 fused to E. coli MalE (maltose binding protein) at the N-terminus (protein, left off: large carriers) MFKISIILPTYNVEQYIARAIESCINQTFKDIEIIVVDDCGNDNSINIAKEYSKKDKRIKIIHNEKNLGLLRARYEGVKVANSPYIMFLDPDDYLELNACEECIKILDEQDEVDLVFFNAIVESNVISYKKFDFNSGFYSKKEFVKKIIAKKNLYWTMWGKLIRKKLYLEAFASLRLEKDVKINMAEDVLLYYPMLSQAQKIAYMNCNLYHYVPNNNSICNTKNEVLVKNNIQELQLVLNYLRQNYILNKYCSVLYVLIKYLLYIQIYKIKRTKLMVTLLAKINILTLKILFKYKKFLKQC | 6.4^3% | 158^1 mU/mg | 444^4% | 29^3% | 100^4% | 210 mU/mg | 83.5 mU/mg | 47.5^4% | 192 mU/mg
CJL-20: Full length CgtB from C. jejuni NCTC 11168 fused to MalE at the N-terminus (protein, left off: large carriers, Full length CgtB from C. jejuni NCTC 11168 fused to MalE at the N-terminus) MSQISIILPTYNVEKYIARALESCINQTFKDIEIIVVDDCGNDKSIDIAKEYASKDDRIKIIHNEENLKLLRARYEGAKVATSPYIMFLDSDDYLELNACEECIKILDMGGGGKIDLLCFEAFITNAKKSIKKLNIKQGKYNNKEFTMQILKTKNPFWTMWAKIIKKDIYLKAFNMLNLKKEIKINMAEDALLYYPLTILSNEIFYLTQPLYTQHVNSNSITNNINSLEANIQEHKIVLNVLKSIKNKKTPLYFLIIYLLKIQLLKYEQNFNKRNINLIYYKINILYQKYQFKWKKFLYNLIP | 3.0^3% | 13.6 mU/mg | 606.2^4% | 8.8^3% | 100^4% | 27 mU/mg | – | 50.5^4% | 40.4 mU/mg
